Assay results published in US20120316071A1 (published 2012).
Changes are numbered by the printed parent chain. Names may count otherwise.

B1: Fab VH1-46_IGHD6-6*01_IGHJ1*01 S102A/S103P/S104F/H111F S54A & L6_IGKJ1*01 (Fab, V domains shown)
VH: QVQLVQSGAEVKKPGASVKVSCKASGYTFTSYYMHWVRQAPGQGLEWMGIINPAGGSTSYAQKFQGRVTMTRDTSTSTVYMELSSLRSEDTAVYYCAREEYAPFSAEYFQFWGQGTLVTVSS
VL: not shown
notes: Fab made in E. coli: CH1 with His6/Flag tags from Plasmid A, kappa constant region from Plasmid C; also called APFF S54A
B2: Fab VH1-46_IGHD6-6*01_IGHJ1*01 S102A/S103P/S104F/H111F P53A & L6_IGKJ1*01 (Fab, V domains shown)
VH: B1 VH with P53A, A54S
VL: not shown
notes: Fab made in E. coli: CH1 with His6/Flag tags from Plasmid A, kappa constant region from Plasmid C; also called APFF P53A
B3: Fab VH1-46_IGHD6-6*01_IGHJ1*01 S102A/S103P/S104F/H111F G56A & L6_IGKJ1*01 (Fab, V domains shown)
VH: B1 VH with A54S, G56A
VL: not shown
notes: Fab made in E. coli: CH1 with His6/Flag tags from Plasmid A, kappa constant region from Plasmid C; also called APFF G56A
B4: Fab VH1-46_IGHD6-6*01_IGHJ1*01 S102A/S103P/S104F/H111F T58A & L6_IGKJ1*01 (Fab, V domains shown)
VH: B1 VH with A54S, T58A
VL: not shown
notes: Fab made in E. coli: CH1 with His6/Flag tags from Plasmid A, kappa constant region from Plasmid C; also called APFF T58A
B5: Fab VH1-46_IGHD6-6*01_IGHJ1*01 S102A/S103P/S104F/H111F I50A & L6_IGKJ1*01 (Fab, V domains shown)
VH: B1 VH with I50A, A54S
VL: not shown
notes: Fab made in E. coli: CH1 with His6/Flag tags from Plasmid A, kappa constant region from Plasmid C; also called APFF I50A
B6: Fab VH1-46_IGHD6-6*01_IGHJ1*01 S102A/S103P/S104F/H111F S57A & L6_IGKJ1*01 (Fab, V domains shown)
VH: B1 VH with A54S, S57A
VL: not shown
notes: Fab made in E. coli: CH1 with His6/Flag tags from Plasmid A, kappa constant region from Plasmid C; also called APFF S57A
B7: Fab VH1-46_IGHD6-6*01_IGHJ1*01 S102A/S103P/S104F/H111F G55A & L6_IGKJ1*01 (Fab, V domains shown)
VH: B1 VH with A54S, G55A
VL: not shown
notes: Fab made in E. coli: CH1 with His6/Flag tags from Plasmid A, kappa constant region from Plasmid C; also called APFF G55A
B8: Fab VH1-46_IGHD6-6*01_IGHJ1*01 S102A/S103P/S104F/H111F N52A & L6_IGKJ1*01 (Fab, V domains shown)
VH: B1 VH with N52A, A54S
VL: not shown
notes: Fab made in E. coli: CH1 with His6/Flag tags from Plasmid A, kappa constant region from Plasmid C; also called APFF N52A
B9: Fab VH1-46_IGHD6-6*01_IGHJ1*01 S102A/S103P/S104F/H111F I51A & L6_IGKJ1*01 (Fab, V domains shown)
VH: B1 VH with I51A, A54S
VL: not shown
notes: Fab made in E. coli: CH1 with His6/Flag tags from Plasmid A, kappa constant region from Plasmid C; also called APFF I51A
B10: Fab VH1-46_IGHD6-6*01_IGHJ1*01 S102A/S103P/S104F/H111F S59A & L6_IGKJ1*01 (Fab, V domains shown)
VH: B1 VH with A54S, S59A
VL: not shown
notes: Fab made in E. coli: CH1 with His6/Flag tags from Plasmid A, kappa constant region from Plasmid C; also called APFF S59A
B11: Fab VH1-46_IGHD6-6*01_IGHJ1*01 S102A/S103P/S104F/H111F/I51T/N52L/S54T/G56H & L6_IGKJ1*01 (Fab, V domains shown)
VH: B1 VH with I51T, N52L, A54T, G56H
VL: not shown
notes: Tested as Fab expressed in E. coli: VH cloned into plasmid A (CH1 constant region, His6 and Flag tags), kappa VL cloned into plasmid C (kappa CL); also called APFF TLTH; H:APFF TLTH
B12: Fab VH1-46_IGHD6-6*01_IGHJ1*01 S102A/S103P/S104F/H111F/I51T/N52L/P53N/S54T/G56H & L6_IGKJ1*01 (Fab, V domains shown)
VH: B1 VH with I51T, N52L, P53N, A54T, G56H
VL: not shown
notes: Tested as Fab expressed in E. coli (CH1 with His6/Flag tags from plasmid A; kappa CL from plasmid C); also called APFF TLNTH
B13: Fab VH1-46_IGHD6-6*01_IGHJ1*01 S102A/S103P/S104F/H111F/I51T/N52L/P53W/S54T/G56H & L6_IGKJ1*01 (Fab, V domains shown)
VH: B1 VH with I51T, N52L, P53W, A54T, G56H
VL: not shown
notes: Tested as Fab expressed in E. coli (CH1 with His6/Flag tags from plasmid A; kappa CL from plasmid C); also called APFF TLWTH
B14: Fab VH1-46_IGHD6-6*01_IGHJ1*01 S102A/S103P/S104F/H111F/I51T/N52L/P53Y/S54T/G56H & L6_IGKJ1*01 (Fab, V domains shown)
VH: B1 VH with I51T, N52L, P53Y, A54T, G56H
VL: not shown
notes: Tested as Fab expressed in E. coli (CH1 with His6/Flag tags from plasmid A; kappa CL from plasmid C); also called APFF TLYTH
B15: Fab VH1-46_IGHD6-6*01_IGHJ1*01 S102A/S103P/S104F/H111F/I51T/N52L/P53M/S54T/G56H & L6_IGKJ1*01 (Fab, V domains shown)
VH: B1 VH with I51T, N52L, P53M, A54T, G56H
VL: not shown
notes: Tested as Fab expressed in E. coli (CH1 with His6/Flag tags from plasmid A; kappa CL from plasmid C); also called APFF TLMTH
B16: Fab VH1-46_IGHD6-6*01_IGHJ1*01 S102A/S103P/S104F/H111F/I51T/N52L/P53R/S54T/G56H & L6_IGKJ1*01 (Fab, V domains shown)
VH: B1 VH with I51T, N52L, P53R, A54T, G56H
VL: not shown
notes: Tested as Fab expressed in E. coli (CH1 with His6/Flag tags from plasmid A; kappa CL from plasmid C); also called APFF TLRTH
B17: Fab VH1-46_IGHD6-6*01_IGHJ1*01 S102A/S103P/S104F/H111F/I51T/N52L/P53S/S54T/G56H & L6_IGKJ1*01 (Fab, V domains shown)
VH: B1 VH with I51T, N52L, P53S, A54T, G56H
VL: not shown
notes: Tested as Fab expressed in E. coli (CH1 with His6/Flag tags from plasmid A; kappa CL from plasmid C); also called APFF TLSTH
B18: Fab VH1-46_IGHD6-6*01_IGHJ1*01 S102A/S103P/S104F/H111F/I51T/N52L/P53T/S54T/G56H & L6_IGKJ1*01 (Fab, V domains shown)
VH: B1 VH with I51T, N52L, P53T, A54T, G56H
VL: not shown
notes: Tested as Fab expressed in E. coli (CH1 with His6/Flag tags from plasmid A; kappa CL from plasmid C); also called APFF TLTTH
B19: Fab VH1-46_IGHD6-6*01_IGHJ1*01 S102A/S103P/S104F/H111F/I51T/N52L/P53G/S54T/G56H & L6_IGKJ1*01 (Fab, V domains shown)
VH: B1 VH with I51T, N52L, P53G, A54T, G56H
VL: not shown
notes: Tested as Fab expressed in E. coli (CH1 with His6/Flag tags from plasmid A; kappa CL from plasmid C); also called APFF TLGTH
B20: Fab VH1-46_IGHD6-6*01_IGHJ1*01 S102A/S103P/S104F/H111F/I51T/N52L/P53A/S54T/G56H & L6_IGKJ1*01 (Fab, V domains shown)
VH: B1 VH with I51T, N52L, P53A, A54T, G56H
VL: not shown
notes: Tested as Fab expressed in E. coli (CH1 with His6/Flag tags from plasmid A; kappa CL from plasmid C); also called APFF TLATH

biological target: T1, Recombinant Human DLL4 (delta-like protein 4) (human, UniProt Q9NR61 27-524); experiment: ELISA on plate-coated DLL4, 100 nM Fab, signal minus noise
T1 construct: Bought recombinant protein (R&D Systems Cat#1506-D4/CF); also called rHuman DLL4; Delta-like 4

| Binder | ELISA (Signal-Noise) |
| --- | --- |
| B1 | 0.255 |
| B2 | 0.41 |
| B3 | 1.6 |
| B4 | 0.14 |
| B5 | 0.01 |
| B6 | 0.39 |
| B7 | 0.02 |
| B8 | 0.6 |
| B9 | 0.49 |
| B10 | 0.02 |

biological target: T2, Recombinant Human DLL4 (human, UniProt Q9NR61 27-524); experiment: ECL 96-well plate binding assay, DLL4 immobilised, 10 nM Fab
T2 construct: Bought recombinant protein (R&D Systems Cat#1506-D4/CF), coated on the plate; also called delta-like protein 4; Delta-like 4

| Binder | ECL signal |
| --- | --- |
| B11 | 123000 |
| B12 | 114000 |
| B13 | 126000 |
| B14 | 99500 |
| B15 | 105000 |
| B16 | 63200 |
| B17 | 135000 |
| B18 | 125000 |
| B19 | 103000 |
| B20 | 163000 |

biological target: T1, Recombinant Human DLL4 (delta-like …); experiment: ECL (MSD) multispot binding assay, DLL4 immobilised, 10 nM Fab, DLL4 signal over blank

| Binder | Signal/Noise [10 nM Fab] |
| --- | --- |
| B1 | 122 |
| B2 | 462 |
| B3 | 442 |
| B4 | 142 |
| B5 | 9.8 |
| B6 | 293 |
| B7 | 44.2 |
| B8 | 721 |
| B9 | 637 |
| B10 | 17.1 |

biological target: T2, Recombinant Human DLL4; experiment: ELISA, DLL4 coated, 100 nM Fab

| Binder | ELISA signal |
| --- | --- |
| B11 | 0.641 |
| B12 | 0.021 |
| B13 | 0.433 |
| B14 | 0.274 |
| B15 | 0.341 |
| B16 | 0.07 |
| B17 | 0.076 |
| B18 | 0.219 |
| B19 | 0.018 |
| B20 | 0.33 |
